Blank lines part the entries; values can stand above or below the binder they belong to.
Assays:
human MET ECD [1] = target: T1, human MET ECD (human, UniProt P08581 25-932); experiment: SPR, MET ECD on chip, crude periplasmic Fab
T1 construct: range 1-932; recombinant ECD made by the applicants; the stated range begins at residue 1, so it includes the signal peptide of the entry; also called hMET; hMET ECD
Procedure: (§1) Fab-expressing phages from the libraries described above were produced according to standard phage display protocols. For selection, phages were first adsorbed to immobilized recombinant human MET ECD, washed, and then eluted using trypsin. After two cycles of selection with human MET ECD, two other cycles were performed in the same fashion using mouse MET ECD. In parallel, we also selected phages alternating a human MET ECD cycle with a mouse MET ECD cycle, for a total of four cycles. Phages selected by the two approaches were pooled together and then used to infect TG1 E. coli. Individual colonies were isolated and secretion of Fabs was induced using IPTG (Fermentas). The Fab-containing periplasmic fraction of bacteria was collected and tested for its ability to bind human and mouse MET ECD by Surface Plasmon Resonance (SPR). Human or mouse MET ECD was immobilized on a CM-5 chip using amine coupling in sodium acetate buffer (GE Healthcare). The Fab-containing periplasmic extracts were loaded into a BIACORE 3000 apparatus (GE Healthcare) with a flow rate of 30 μl/min. The Fab off-rates (koff) were measured over a two minute period. Binding of Fabs to human and mouse MET was further characterized by ELISA using MET ECD in solid phase and periplasmic crude extract in solution.
(§2) TABLE 7 Fabs binding to both human MET (hMET) and mouse MET (mMET). Fabs are grouped in families based on their VH CDR3 sequence. Binding of Fabs to human and mouse MET ECD was determined by Surface Plasmon Resonance (SPR) and by ELISA. SPR values represent the koff (s⁻¹). ELISA values represent the Optical Density (OD) at 450 nm (AU, arbitrary units). Both SPR and ELISA were performed using crude periplasmic extracts. Fab concentration in the extract was not determined. Values are the mean of three independent measurements.

mouse MET ECD [2] = target: T2, mouse MET ECD (mouse, UniProt P16056 25-931); experiment: SPR, MET ECD on chip, crude periplasmic Fab
T2 construct: range 1-931; recombinant ECD made by the applicants; the stated range begins at residue 1; also called mMET; mMET ECD
Procedure: as §1, §2

human MET ECD [3] = target: T1, human MET ECD; experiment: ELISA, MET ECD in solid phase, crude periplasmic Fab
Procedure: as §1, §2

mouse MET ECD [4] = target: T2, mouse MET ECD; experiment: as above
Procedure: as §1, §2

[5] = target: T3, mouse MET-Fc (R&D Systems) (mouse, UniProt P16056 25-929, limits assumed); experiment: competition ELISA, mMET-Fc in solid phase, competitor 0.3 nM biotinylated mHGF
T3 construct: bought chimeric protein; also called mMET; not shown: Fc part
Procedure: (§3) To investigate along this line, we tested the competition between mAbs and HGF by ELISA. Recombinant human and mouse HGF (R&D Systems) were biotinylated at the N-terminus using NHS-LC-biotin (Thermo Scientific). MET-Fc protein, either human or mouse (R&D Systems), was immobilized in solid phase and then exposed to 0.3 nM biotinylated HGF, either human or mouse, in the presence of increasing concentrations of antibodies (0-120 nM).
(§4) A MET-Fc chimeric protein (either human or mouse) was immobilized in solid phase and exposed to a fixed concentration of biotinylated HGF (either human or mouse), in the presence of increasing concentrations of antibodies. […] Antibody-HGF competition is expressed as IC₅₀ (the concentration that achieves 50% competition) and IMAX (the maximum % competition reached at saturation).

[6] = target: T4, native human MET on living cells (human, UniProt P08581 25-1390); experiment: cell-based or functional assay
[7] = target: T5, native mouse MET on living cells (mouse, UniProt P16056 25-1379); experiment: cell-based or functional assay
[8] = target: T4, native human MET on living cells; experiment: flow cytometry, A549 cells
Procedure: (§5) We also analysed whether chimeric anti-MET antibodies bound to native human and mouse MET in living cells. […] Antibody binding to cells was analysed by flow cytometry using phycoerythrin-conjugated anti-human IgG1 antibodies (eBioscience) and a CyAn ADP analyser (Beckman Coulter). As a positive control for human MET binding, we used a commercial mouse anti-human MET antibody (R&D Systems) and phycoerythrin-conjugated anti-mouse IgG1 antibodies (eBioscience).
(§6) As a positive control for mouse MET binding we used a commercial goat anti-mouse MET antibody (R&D Systems) and phycoerythrin-conjugated anti-goat IgG1 antibodies (eBioscience). […] Consistent with the data obtained in ELISA, maximal binding (EMAX) varied depending on antibody, but was similar in human and mouse cells.

[9] = target: T6, human MET-Fc (R&D Systems) (human, UniProt P08581 25-932); experiment: competition ELISA, hMET-Fc in solid phase, competitor 0.3 nM biotinylated hHGF
T6 construct: extracellular domain; bought chimeric protein; also called hMET; not shown: Fc portion of human IgG1
Procedure: as §3, §4

[10] = target: T4, native human MET on living cells; experiment: cell-based or functional assay; remark: listed apart in the source
[11] = target: T5, native mouse MET on living cells; experiment: cell-based or functional assay; remark: listed apart in the source
human MET ECD [12] = target: T1, human MET ECD; experiment: ELISA, MET ECD in solid phase, mAb 0-20 nM
Procedure: (§7) Production (by transient transfection of mammalian cells) and purification (by protein A affinity chromatography) of the resulting chimeric llama-human IgG1 molecules was outsourced to U-protein Express. Binding of chimeric mAbs to MET was determined by ELISA using hMET or mMET ECD in solid phase and increasing concentrations of antibodies (0-20 nM) in solution. […] Binding capacity (EMAX) varied from antibody to antibody, possibly due to partial epitope exposure in the immobilized antigen, but was similar in the human and mouse setting.

mouse MET ECD [13] = target: T2, mouse MET ECD; experiment: ELISA, MET ECD in solid phase, mAb 0-20 nM
Procedure: as §7

[14] = target: T4, native human MET on living cells; experiment: cell-based or functional assay; remark: listed apart in the source
[15] = target: T5, native mouse MET on living cells; experiment: cell-based or functional assay; remark: listed apart in the source
[16] = target: T5, native mouse MET on living cells; experiment: flow cytometry, MLP29 cells
Procedure: as §5, §6

[17] = target: T4, native human MET on living cells; experiment: cell-based or functional assay; remark: listed apart in the source
[18] = target: T5, native mouse MET on living cells; experiment: cell-based or functional assay; remark: listed apart in the source

T4 sequence (P08581 25-1390): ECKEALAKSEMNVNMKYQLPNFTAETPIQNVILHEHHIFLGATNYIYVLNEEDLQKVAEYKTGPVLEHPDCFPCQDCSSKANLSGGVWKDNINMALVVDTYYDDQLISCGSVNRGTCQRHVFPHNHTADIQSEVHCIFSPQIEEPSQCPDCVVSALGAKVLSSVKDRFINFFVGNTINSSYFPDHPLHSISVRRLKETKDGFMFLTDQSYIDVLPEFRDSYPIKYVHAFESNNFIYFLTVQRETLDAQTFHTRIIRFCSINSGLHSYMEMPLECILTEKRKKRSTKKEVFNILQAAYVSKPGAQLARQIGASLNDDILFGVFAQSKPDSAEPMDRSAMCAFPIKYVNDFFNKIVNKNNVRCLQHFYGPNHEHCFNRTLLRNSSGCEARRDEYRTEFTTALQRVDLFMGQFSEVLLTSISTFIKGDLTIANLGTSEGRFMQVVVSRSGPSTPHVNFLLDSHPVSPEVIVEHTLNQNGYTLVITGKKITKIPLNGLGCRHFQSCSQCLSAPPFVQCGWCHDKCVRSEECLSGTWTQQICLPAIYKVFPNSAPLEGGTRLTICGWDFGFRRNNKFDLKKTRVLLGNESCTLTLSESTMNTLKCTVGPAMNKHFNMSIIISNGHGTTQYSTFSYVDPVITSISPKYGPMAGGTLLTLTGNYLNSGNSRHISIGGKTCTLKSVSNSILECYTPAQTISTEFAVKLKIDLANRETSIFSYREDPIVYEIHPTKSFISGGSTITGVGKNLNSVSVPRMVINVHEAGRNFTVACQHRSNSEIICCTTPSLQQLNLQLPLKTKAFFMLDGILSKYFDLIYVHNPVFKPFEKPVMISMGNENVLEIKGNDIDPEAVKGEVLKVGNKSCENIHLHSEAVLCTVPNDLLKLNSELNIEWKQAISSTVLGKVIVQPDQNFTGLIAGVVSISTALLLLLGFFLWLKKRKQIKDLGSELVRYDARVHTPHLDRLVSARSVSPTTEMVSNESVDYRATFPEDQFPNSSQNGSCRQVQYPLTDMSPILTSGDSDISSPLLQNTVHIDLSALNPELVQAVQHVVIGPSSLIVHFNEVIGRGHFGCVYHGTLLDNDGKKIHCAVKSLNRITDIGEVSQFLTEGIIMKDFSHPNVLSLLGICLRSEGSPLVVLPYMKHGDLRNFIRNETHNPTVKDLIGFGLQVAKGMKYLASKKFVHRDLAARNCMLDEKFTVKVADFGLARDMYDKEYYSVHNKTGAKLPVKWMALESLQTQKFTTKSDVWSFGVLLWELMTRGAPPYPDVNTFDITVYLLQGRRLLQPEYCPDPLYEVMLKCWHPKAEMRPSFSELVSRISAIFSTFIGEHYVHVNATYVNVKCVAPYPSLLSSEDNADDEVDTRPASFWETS
T1 sequence (P08581 25-932 limits assumed, form in doubt): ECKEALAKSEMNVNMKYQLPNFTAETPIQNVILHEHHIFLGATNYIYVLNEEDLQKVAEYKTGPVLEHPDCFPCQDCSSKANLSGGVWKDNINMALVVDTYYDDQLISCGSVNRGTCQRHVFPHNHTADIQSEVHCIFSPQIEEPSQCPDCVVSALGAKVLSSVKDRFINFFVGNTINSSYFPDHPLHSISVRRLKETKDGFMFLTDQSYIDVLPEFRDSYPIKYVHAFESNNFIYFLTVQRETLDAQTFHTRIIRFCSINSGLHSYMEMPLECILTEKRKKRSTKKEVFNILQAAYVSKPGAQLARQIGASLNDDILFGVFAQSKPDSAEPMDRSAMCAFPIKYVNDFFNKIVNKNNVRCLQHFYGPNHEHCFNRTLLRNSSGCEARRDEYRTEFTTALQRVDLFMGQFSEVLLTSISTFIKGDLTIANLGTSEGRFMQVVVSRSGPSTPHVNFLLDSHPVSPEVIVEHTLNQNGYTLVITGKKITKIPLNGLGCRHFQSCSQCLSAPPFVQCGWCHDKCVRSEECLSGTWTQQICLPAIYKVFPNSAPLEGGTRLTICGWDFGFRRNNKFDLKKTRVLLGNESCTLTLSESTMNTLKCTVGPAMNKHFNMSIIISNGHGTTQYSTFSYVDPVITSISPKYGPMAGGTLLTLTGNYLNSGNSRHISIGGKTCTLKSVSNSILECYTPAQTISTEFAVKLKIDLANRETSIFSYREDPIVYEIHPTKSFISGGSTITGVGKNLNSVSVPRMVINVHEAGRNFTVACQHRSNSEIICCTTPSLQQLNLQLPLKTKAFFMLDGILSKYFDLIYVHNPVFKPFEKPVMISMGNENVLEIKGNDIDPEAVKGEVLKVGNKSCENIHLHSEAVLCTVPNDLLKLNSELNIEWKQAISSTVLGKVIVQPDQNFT
T6 sequence (P08581 25-932): as the sequence (P08581 25-932 limits assumed, form in doubt) above

koff (human MET ECD [1]): 0.00294 s⁻¹
koff (mouse MET ECD [2]): 0.00267 s⁻¹
OD450 (human MET ECD [3]): 3.26 AU
OD450 (mouse MET ECD [4]): 3.07 AU
B1: 71D6 Fab (Fab, V domains shown)
VH: ELQLVESGGGLVQPGGSLRLSCAASGFTFSSYGMSWVRQAPGKGLEWVSAINSYGGSTSYADSVKGRFTISRDNAKNTLYLQMNSLKPEDTAVYYCAKEVRADLSRYNDYESYDYWGQGTQVTVSS
VL: QPVLNQPSALSVTLGQTAKITCQGGSLGARYAHWYQQKPGQAPVLVIYDDDSRPSGIPERFSGSSSGGTATLTISGAQAEDEGDYYCQSADSSGSVFGGGTHLTVL
notes: llama Fab (VH-CH1 and lambda VL-CL) with MYC flag, crude periplasmic extract

IC50 [5]: 0.49 nM
IMAX [5]: 71.5%
phospho-MET ELISA EC50, A549 cells [6]: 0.52 nM
phospho-MET ELISA EMAX (% HGF activity), A549 cells [6]: 87.6%
phospho-MET ELISA EC50, MLP29 cells [7]: 0.41 nM
phospho-MET ELISA EMAX (% HGF activity), MLP29 cells [7]: 102%
EC50 [8]: 0.235 nM
EMAX [8]: 85.7 % relative to control
IC50 [9]: 0.43 nM
IMAX [9]: 76.9%
EC50 (human MET ECD [12]): 0.09 nM
EMAX (OD450) (human MET ECD [12]): 0.994 AU
EC50 (mouse MET ECD [13]): 0.116 nM
EMAX (OD450) (mouse MET ECD [13]): 0.896 AU
scatter score 0-4, HPAF-II, 0.001 nM [14]: 0 score
scatter score 0-4, HPAF-II, 0.004 nM [14]: 0 score
scatter score 0-4, HPAF-II, 0.012 nM [14]: 0 score
scatter score 0-4, HPAF-II, 0.037 nM [14]: 1 score
scatter score 0-4, HPAF-II, 0.111 nM [14]: 2 score
scatter score 0-4, HPAF-II, 0.333 nM [14]: 3 score
scatter score 0-4, HPAF-II, 1.000 nM [14]: 3 score
scatter score 0-4, HPAF-II, 3.000 nM [14]: 4 score
scatter score 0-4, HPAF-II, 9.000 nM [14]: 4 score
scatter score 0-4, MLP29, 0.001 nM [15]: 0 score
scatter score 0-4, MLP29, 0.004 nM [15]: 0 score
scatter score 0-4, MLP29, 0.012 nM [15]: 0 score
scatter score 0-4, MLP29, 0.037 nM [15]: 1 score
scatter score 0-4, MLP29, 0.111 nM [15]: 2 score
scatter score 0-4, MLP29, 0.333 nM [15]: 3 score
scatter score 0-4, MLP29, 1.000 nM [15]: 3 score
scatter score 0-4, MLP29, 3.000 nM [15]: 4 score
scatter score 0-4, MLP29, 9.000 nM [15]: 4 score
EC50 [16]: 0.208 nM
EMAX [16]: 73.8 % relative to control
branches per spheroid, LOC cells, 0.5 nM [17]: 10.3 branches
branches per spheroid, LOC cells, 2.5 nM [17]: 17 branches
branches per spheroid, LOC cells, 12.5 nM [17]: 18.7 branches
branches per spheroid, MLP29 cells, 0.5 nM [18]: 17.3 branches
branches per spheroid, MLP29 cells, 2.5 nM [18]: 15.3 branches
branches per spheroid, MLP29 cells, 12.5 nM [18]: 22.3 branches
B2: 74C8 chimeric llama-human IgG1 mAb (antibody, V domains shown)
VH: EVQLVESGGGLVQPGGSLRLSCAASGFTFRNYHMSWVRQVPGKGFEWISDINSAGGSTYYADSVKGRFTISRDNAKNTLYLEMNSLKPEDTALYYCARVNVWGVNYWGKGTLVSVSS
VL: QTVVTQEPSLSVSPGGTVTLTCGLSSGSVTTSNYPGWFQQTPGQAPRTLIYNTNSRHSGVPSRFSGSISGNKAALTITGAQPEDEADYYCSLYPGSYTNVFGGGTHLTVL
notes: llama VH on human IgG1 CH1-CH2-CH3, llama VL on human lambda CL
protection from staurosporine, viability EC50, MCF10A cells [10]: > 32 nM
protection from staurosporine, viability EMAX, MCF10A cells [10]: 41.7%
protection from staurosporine, viability EC50, MLP29 cells [11]: > 32 nM
protection from staurosporine, viability EMAX, MLP29 cells [11]: 37.5%

From US20210087281A1 (AGOMAB THERAPEUTICS, published 2021)
